The supplement of paper PMC11780869

Test system: Bacillus subtilis
Assay: cleaved RNA product abundance (RNA/gDNA barcode ratio) relative to median wild-type variant (ratio to wild type); higher = more accumulation of the downstream cleavage product
Summary of the method: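 The B. subtilis chromosome carried reporter mRNAs, truncated aprE or tetM, containing barcoded RNase Y cleavage-site windows mutagenized using oligos with a 9% error rate. After growth in LB at 37°C from OD600 0.0003 to 0.3, cleaved RNA was gel-selected, reverse transcribed and barcode-sequenced next to genomic DNA barcodes, with UMI collapsing. Each construct's RNA:gDNA barcode ratio was scaled to the median construct with the unmutated site. That scaled ratio is reported as cleaved product abundance.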

[1] = experiment (reporter, strain, medium): exp 2b: truncated aprE reporter, strain BJT200, cleavage site: cggR-gapA (positions -7 to +36 mutated)
[2] = experiment (reporter, strain, medium): exp 4a: truncated aprE reporter, strain BJT201 with 2% xylose (RNase J1 expressed), cleavage site: cggR-gapA (positions -7 to +36 mutated)
[3] = experiment (reporter, strain, medium): exp 6: tetM reporter, strain 168, cleavage site: cggR-gapA (positions -7 to +36 mutated)
[4] = experiment (reporter, strain, medium): exp 8a: truncated aprE reporter, strain BJT201 with 2% xylose (RNase J1 expressed), cleavage site: glnRA (positions -5 to +31 mutated)

Sequence | cleaved RNA product abundance [2] | cleaved RNA product abundance [4] | also measured
ACAGACGAAGGAGCCGCAAAGAAGTTAGTAAGGGATGAATAATCCCTCAATATAAATATCTCTCACTTATTTAAA | 0.443 |  | cleaved RNA product abundance [1]: 0.306; cleaved RNA product abundance [3]: 0.559
ACAGACGAAGGAGCCGCAAAGAAGTTATTAAGGGATGAATAATCGTTCAATATAAATATCTCTCACTTATTTAAA | 0.0943 |  | 
CGACATGTCCCGCTTCTTTCATTAATCTGTTATCAACTGTTTTGCTATATACATTTACCTTTTAAGAGGAGGAAT |  | 0.403 | 
CGACATGTCCCGCTTCTTTCATTAATCCGTTAGCAACTGTTTTGCTATATACCTTCACCTTTTAAGAGGAGGAAT |  | 0.276 | 
ACAGACGAAGGAGCCGCAACGAAGTTATTAAGGGATGAATAAACCCTCAATATAAATATCTCTCACTTATTTAAA | 0.538 |  | 
CGACATGTCCCGCTTCTTTCATTAATCCGTTAGCAACTGTTTAGCCATATACATTTACCTTTTAAGAGGAGGAAT |  | 0.259 | 
ACAGACGAAGGAGCCGCAAAAAAGTTATTAAGAGATGAATAATCCCTCAATATAAATATCTCTCACTTATTTAAA | 0.133 |  | cleaved RNA product abundance [1]: 0.126; cleaved RNA product abundance [3]: 0.0928
ACAGACGAAGGAGCCGCAAAGAAGTTAGTAAGGTATGAATAATCCCTCAATATAAATATCTCTCACTTATTTAAA | 0.135 |  | 
ACAGACGAAGGAGCCGCAAAGAAGTTATTAAGGGATGAATAATCTCTCTATATAAATATCTCTCACTTATTTAAA | 0.292 |  | 
ACAGACGAAGGAGCCGCAAAGAAGTTATTAAGGGATGAAAAAACCCTCAATATAAATATCTCTCACTTATTTAAA | 0.642 |  | cleaved RNA product abundance [1]: 0.411
ACAGACGAAGGAGCCGCAAAGAAGTTATTAAGGGATCAATAATCCCTCATTATAAATATCTCTCACTTATTTAAA | 0.213 |  | 
CGACATGTCCCGCTTCTTTCATTAATCCGTTAGCAACTGTTTTGCTATATACATTTAACATTTAAGAGGAGGAAT |  | 0.609 | 
ACAGACGAAGGAGCCGCAAAGAAGATATTAAGGGATCAATAATCCCTCAATATAAATATCTCTCACTTATTTAAA | 0.815 |  | cleaved RNA product abundance [1]: 0.501
ACAGACGAAGGAGCCGCAAAGAAGTTATTAAGGGTTGAATAATCCCTCCATATAAATATCTCTCACTTATTTAAA | 0.0987 |  | 
CGACATGTCCCGCTTCTTTCATTAATCCGTTAGCAACTGTTTTCCTATATATATTTACCTTTTAAGAGGAGGAAT |  | 0.505 | 
ACAGACGAAGGAGCCGCAAAGAAGTTATTAAGGGATGAATAATCCCTAAATACAAATATCTCTCACTTATTTAAA | 0.0687 |  | 
CGACATGTCCCGCTTCTTTCATTAATCCGTTAGCAAATGTTTTGCTATATACAATTACCTTTTAAGAGGAGGAAT |  | 1.76 | 
ACAGACGAAGGAGCCGCAAAGAAGATATTAAGGGATGAATAATCCATCAATATAAATATCTCTCACTTATTTAAA | 0.207 |  | 
ACAGACGAAGGAGCCGCAAAGAAGTTATTAAGGAATGAATAAACCCTCAATATAAATATCTCTCACTTATTTAAA | 0.11 |  | cleaved RNA product abundance [1]: 0.0981
ACAGACGAAGGAGCCGCAAAGAAGTTATTAAGGAATGAATAATCCCTCAATATAAATAGCTCTCACTTATTTAAA | 0.095 |  | cleaved RNA product abundance [1]: 0.108
CGACATGTCCCGCTTCTTTCATTAGTCCGTTAGTAACTGTTTTGCTATATACATTTACCTTTTAAGAGGAGGAAT |  | 0.335 | 

Sequence | cleaved RNA product abundance [2] | cleaved RNA product abundance [4] | also measured
ACAGACGAAGGAGCCGCAAAGTAGTTATTAAGGGATGAACAATCCCTCAATATAAATATCTCTCACTTATTTAAA | 0.763 |  | 
CGACATGTCCCGCTTCTTTCATTATTCCGTTAACAACTGTTTTGCTATATACATTTATCTTTTAAGAGGAGGAAT |  | 0.27 | 
CGACATGTCCCGCTTCTTTCATTAATCCGTTTGCAACTGTTTTACTATATACATTTACCTTTTAAGAGGAGGAAT |  | 0.879 | 
CGACATGTCCCGCTTCTTTCATTAATCCGTTAGCAACTATTTTGGTATATACATTTACCTTTTAAGAGGAGGAAT |  | 0.273 | 
ACAGACGAAGGAGCCGCAAAGAAGTTATTAAGCGATGAATAATCCCTCTATATAAATATCTCTCACTTATTTAAA | 0.0811 |  | 
ACAGACGAAGGAGCCGCAAAGAAATTATTAAGGGATGAATAATCACTCAATATAAATATCTCTCACTTATTTAAA | 0.122 |  | cleaved RNA product abundance [1]: 0.136
ACAGACGAAGGAGCCGCAAAGAAATTATTAAGGGATGAATAATCCCTCCATATAAATATCTCTCACTTATTTAAA | 0.338 |  | 
CGACATGTCCCGCTTCTTTCATTAATCCGTTACCAACTTTTTTGCTATATACATTTACCTTTTAAGAGGAGGAAT |  | 0.225 | 
ACAGACGAAGGAGCCGCAAAGAAGTTATTAAGGGATAAATAATCCCTCAACATAAATATCTCTCACTTATTTAAA | 0.251 |  | 
ACAGACGAAGGAGCCGCAAACAAGTTTTTAAGGGATGAATAATCCCTCAATATAAATATCTCTCACTTATTTAAA | 0.304 |  | cleaved RNA product abundance [1]: 0.289
CGACATGTCCCGCTTCTTTCATTATTCCGTTAGCAACTGTTTTGCTTTATACATTTACCTTTTAAGAGGAGGAAT |  | 0.401 | 
CGACATGTCCCGCTTCTTTCATTAATCCGTTAGCAACTCTTTTACTATATACATTTACCTTTTAAGAGGAGGAAT |  | 0.579 | 
ACAGACGAAGGAGCCGCAAAGAAGTTATTAAGGGATGAATTATCCCTTAATATAAATATCTCTCACTTATTTAAA | 0.438 |  | 
CGACATGTCCCGCTTCTTTCATTAATCCGTTAGCAACTGTTTTGCCATATACATATACCTTTTAAGAGGAGGAAT |  | 0.198 | 
ACAGACGAAGGAGCCGCAAAGAAGTTATTAACGGATGAATAACCCCTCAATATAAATATCTCTCACTTATTTAAA | 0.0802 |  | 
CGACATGTCCCGCTTCTTTCATTAATCCGTTAGTAACTGTTTTGCTATATACATTTACGTTTTAAGAGGAGGAAT |  | 0.581 | 
CGACATGTCCCGCTTCTTTCATTAATCGATTAGCAACTGTTTTGCTATATACATTTACCTTTTAAGAGGAGGAAT |  | 0.79 | 
ACAGACGAAGGAGCCGCAAAGAAGTTGTTAAGTGATGAATAATCCCTCAATATAAATATCTCTCACTTATTTAAA | 0.0952 |  | 
ACAGACGAAGGAGCCGCACAGAAGTTATTAAGGGATGAATAAACCCTCAATATAAATATCTCTCACTTATTTAAA | 0.34 |  | cleaved RNA product abundance [1]: 0.294
CGACATGTCCCGCTTCTTTCATTAATGCGATAGCAACTGTTTTGCTATATACATTTACCTTTTAAGAGGAGGAAT |  | 0.395 | 
CGACATGTCCCGCTTCTTTCATTAATCCGTTAGCAATTGTTTTGCTATATACATGTACCTTTTAAGAGGAGGAAT |  | 0.526 | 

Sequence | cleaved RNA product abundance [2] | cleaved RNA product abundance [4] | also measured
ACAGACGAAGGAGCCGCAAAGAAGTTATTAAGGCATGAATAATCCATCAATATAAATATCTCTCACTTATTTAAA | 0.114 |  | cleaved RNA product abundance [1]: 0.102
ACAGACGAAGGAGCCGCAAAGAAGTTCTTAAGGGATGAATAATGCCTCAATATAAATATCTCTCACTTATTTAAA |  |  | cleaved RNA product abundance [1]: 0.0955
ACAGACGAAGGAGCCGCAAAGAAGTTTTTAAGGGATGAATAATGCCTCAATATAAATATCTCTCACTTATTTAAA | 0.17 |  | cleaved RNA product abundance [1]: 0.121
ACAGACGAAGGAGCCGCAAAGTAGTTATTAAGGGATGAATAGTCCCTCAATATAAATATCTCTCACTTATTTAAA | 0.883 |  | 
CGACATGTCCCGCTTCTTTCATTAATCCGTTTGCAACTGTTTTGCTACATACATTTACCTTTTAAGAGGAGGAAT |  | 0.623 | 
ACAGACGAAGGAGCCGCAAACAAGTTATTAAGGGATTAATAATCCCTCAATATAAATATCTCTCACTTATTTAAA | 0.656 |  | cleaved RNA product abundance [1]: 1.02
CGACATGTCCCGCTTCTTTCATTAATCTTTTAGCAACTGTTTTGCTATATACATTTACCTTTTAAGAGGAGGAAT |  | 1.14 | 
ACAGACGAAGGAGCCGCAAAGAAGTTATTAAGGGAAGAATAATCCTTCAATATAAATATCTCTCACTTATTTAAA | 0.144 |  | cleaved RNA product abundance [1]: 0.13
ACAGACGAAGGAGCCGCAGAGAAGTTATTAAGGAATGAATAATCCCTCAATATAAATATCTCTCACTTATTTAAA | 0.143 |  | 
ACAGACGAAGGAGCCGCAAAGAAGTTATTAAGGGATCAATAATCTATCAATATAAATATCTCTCACTTATTTAAA | 0.209 |  | 
ACAGACGAAGGAGCCGCAAAGAAGTTATTAAGGGAAGAATAATCCCTAAATATAAATATCTCTCACTTATTTAAA | 0.326 |  | 
ACAGACGAAGGAGCCGCAAAGAAGTTATTAAGGGATGAATAATCCCTCAATATATATATTTCTCACTTATTTAAA | 0.817 |  | 
ACAGACGAAGGAGCCGCAAAGAAGTCATTAAGAGATGAATAATCCCTCAATATAAATATCTCTCACTTATTTAAA | 0.137 |  | cleaved RNA product abundance [1]: 0.108
ACAGACGAAGGAGCCGCAAAGGAGCTATTAAGGGATGAATAATCCCTCAATATAAATATCTCTCACTTATTTAAA |  |  | cleaved RNA product abundance [1]: 0.502
CGACATGTCCCGCTTCTTTCATTAATCCGTTAGCAACTGTTTTGCAATATACATTTACCATTTAAGAGGAGGAAT |  | 0.562 | 
CGACATGTCCCGCTTCTTTCATTAATCCGTTAGCAACTGTTTTGCTATATACACTTAACTTTTAAGAGGAGGAAT |  | 0.785 | 
CGACATGTCCCGCTTCTTTCATTAATCCGTTAGCAACTGTTTTGCTATATACATTCACCTTTTAAGAGGAGGAAT |  | 0.581 | 
CGACATGTCCCGCTTCTTTCATTAATCCGTTAGCATCTTTTTTGCTATATACATTTACCTTTTAAGAGGAGGAAT |  | 0.995 | 
ACAGACGAAGGAGCCGCAAAGAATTTCTTAAGGGATGAATAATCCCTCAATATAAATATCTCTCACTTATTTAAA | 0.217 |  | 
